± gives the standard deviation of the averaged measurements.
Each sequence was assayed on Saccharomyces cerevisiae (assay: protein stability index of tFT-peptide fusion (C-terminal peptide) (PSI (0-1 scale)); higher = more stable (slower turnover)). Conditions: genetic background: wild type; temperature: 30 C.
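Note: PSI is a weighted mean of sequencing reads over stability bins, variants kept only with over 10 reads, mCherry proximal and sfGFP distal, peptide attached via GGGS linker.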

VFLISPSSFSPP and VFLNRGSHQQET are within error of each other in protein stability index: 0.738 ± 0.033 for the first, 0.691 ± 0.056 for the second.

VFLQRIDDKSPY and VFLRSGCSGWGE are within error of each other in protein stability index: 0.712 ± 0.046 for the first, 0.827 ± 0.094 for the second.

VFLRSPSRAPSL and VFMPVGVGGGSC are within error of each other in protein stability index: 0.72 ± 0.078 for the first, 0.678 ± 0.05 for the second.

VFPLSLLLTSFL and VFPSLCITSVCT are within error of each other in protein stability index: 0.591 ± 0.047 for the first, 0.53 ± 0.02 for the second.

Going from VFPVGSGLWRVF to VFRFAPILHSHR, the protein stability index falls from 0.63 ± 0.016 to 0.585 ± 0.019.

VFSCPLLFASFS and VFSPVLVCKMGE are within error of each other in protein stability index: 0.672 ± 0.041 for the first, 0.698 ± 0.024 for the second.

VFTCTGVLFGGM and VFTSPPPLPSPP are within error of each other in protein stability index: 0.768 ± 0.12 for the first, 0.728 ± 0.029 for the second.

Compared with VGADVLAYRGVA, VGASRAGGEVSR is higher in protein stability index: 0.604 ± 0.025 for the first, 0.651 ± 0.013 for the second.

VGCACGYGGCGL and VGCEGGRRGVGG are within error of each other in protein stability index: 0.682 ± 0.058 for the first, 0.65 ± 0.059 for the second.

VGCSDFSAIVLD and VGCSSHAFGSSV are within error of each other in protein stability index: 0.713 ± 0.069 for the first, 0.686 ± 0.053 for the second.

VGCSVGHFQRLF and VGDGQGGGGQGG are within error of each other in protein stability index: 0.677 ± 0.017 for the first, 0.661 ± 0.022 for the second.

VGDGQGWGGQGG and VGDRCDECGFWA are within error of each other in protein stability index: 0.688 ± 0.0075 for the first, 0.699 ± 0.0043 for the second.

Compared with VGFLGFFVVEGV, VGGGGGAEGAGW is higher in protein stability index: 0.545 ± 0.033 for the first, 0.739 ± 0.12 for the second.

Going from VGGGGGGGWWHW to VGGGGLGVEAWG, the protein stability index falls from 0.805 ± 0.011 to 0.613 ± 0.059.

VGGGGVGAGVWG and VGGGPAALGMWI are within error of each other in protein stability index: 0.653 ± 0.086 for the first, 0.689 ± 0.077 for the second.

VGGGVGVPGVLG and VGGIVGGFCRGR are within error of each other in protein stability index: 0.672 ± 0.012 for the first, 0.701 ± 0.069 for the second.

Going from VGGPRVLVRGVY to VGGRVESLGVGD, the protein stability index falls from 0.6754 ± 0.0055 to 0.584 ± 0.017.

VGGVGGLWVGAV and VGGVWAGGGCSF are within error of each other in protein stability index: 0.7143 ± 0.0018 for the first, 0.651 ± 0.12 for the second.

VGGWGWLPLPWC and VGGWWAREVVEL are within error of each other in protein stability index: 0.678 ± 0.13 for the first, 0.753 ± 0.0085 for the second.

VGHCSEGTFYPG and VGICWLTEPVLY are within error of each other in protein stability index: 0.65 ± 0.12 for the first, 0.731 ± 0.089 for the second.

VGKFGGAGGICQ and VGKIRWIGFGGW are within error of each other in protein stability index: 0.685 ± 0.013 for the first, 0.695 ± 0.051 for the second.

VGLGGTGGESRY and VGLGMREWLGVE are within error of each other in protein stability index: 0.706 ± 0.027 for the first, 0.758 ± 0.026 for the second.

Going from VGNPHKRGWRAR to VGPFRISRSFTG, the protein stability index rises from 0.60903 ± 0.00027 to 0.7174 ± 0.004.

First: VGQGVPEGGGQW
Second: VGRGEEAHTPRR
The protein stability index of the first is higher: 0.726 ± 0.018 for the first, 0.678 ± 0.013 for the second.

VGRGGGVSLGGR and VGRGGPGVGGSW are within error of each other in protein stability index: 0.671 ± 0.082 for the first, 0.736 ± 0.043 for the second.

Going from VGRVNRNERCQR to VGSSGDEWGRYG, the protein stability index rises from 0.587 ± 0.022 to 0.7332 ± 0.0046.

VGVCCLSGDGFV and VGVGGEQISIEY are within error of each other in protein stability index: 0.6889 ± 0.0048 for the first, 0.723 ± 0.054 for the second.

VGVGWAALRWYG and VGVIREGKENGN are within error of each other in protein stability index: 0.6761 ± 0.0047 for the first, 0.656 ± 0.023 for the second.

Going from VGVSGAGFSWGG to VGVVGGRWCGRG, the protein stability index falls from 0.712 ± 0.0095 to 0.648 ± 0.0099.

First: VGVVLNEPYSQE
Second: VGVWWWWCFGSW
The protein stability index of the first is higher: 0.702 ± 0.011 for the first, 0.595 ± 0.069 for the second.

VGWAGHVWFWWG and VGWFELWGVSSG are within error of each other in protein stability index: 0.683 ± 0.064 for the first, 0.76 ± 0.052 for the second.

Compared with VGWHFPDGVVDC, VGWQGRWWVWGG is lower in protein stability index: 0.8 ± 0.12 for the first, 0.5679 ± 0.005 for the second.

VGWVLGCRGLGW and VHDPLLPIFLIR are within error of each other in protein stability index: 0.694 ± 0.067 for the first, 0.684 ± 0.042 for the second.

VHFGVLSLGKRH and VHRMWINARDCV are within error of each other in protein stability index: 0.769 ± 0.16 for the first, 0.676 ± 0.05 for the second.

VIFCVGRFSGGS and VIFIRCFNFQDG are within error of each other in protein stability index: 0.645 ± 0.085 for the first, 0.614 ± 0.052 for the second.

VILFINRIDDGK and VIQMVIYEKDQR are within error of each other in protein stability index: 0.616 ± 0.057 for the first, 0.681 ± 0.04 for the second.

First: VIRQPSSKLWIQ
Second: VISLFSSLCSRL
The protein stability index of the first is lower: 0.6559 ± 0.0057 for the first, 0.797 ± 0.05 for the second.

Going from VIVHFIWPSVGR to VKASPSDGGIVP, the protein stability index rises from 0.652 ± 0.03 to 0.725 ± 0.035.

VKESILVGRYDC and VKKSTPIKKPQT are within error of each other in protein stability index: 0.709 ± 0.016 for the first, 0.651 ± 0.062 for the second.

VKPVLEILKTKT and VKSMVCQGHLGI are within error of each other in protein stability index: 0.663 ± 0.037 for the first, 0.722 ± 0.043 for the second.

VKVKRCVRKVGG and VLANAAGLEGFA are within error of each other in protein stability index: 0.687 ± 0.046 for the first, 0.681 ± 0.041 for the second.

VLCVDQVEVSFV and VLDCRDVSCHVL are within error of each other in protein stability index: 0.678 ± 0.03 for the first, 0.661 ± 0.0081 for the second.

VLDPRGEFFSHP and VLFLESWLRFRT are within error of each other in protein stability index: 0.657 ± 0.044 for the first, 0.623 ± 0.073 for the second.

Going from VLGSYFNGIWLF to VLGVDVIQVCPI, the protein stability index rises from 0.534 ± 0.019 to 0.682 ± 0.018.

VLGWGSKCLVGS and VLHGFGSLRDRV are within error of each other in protein stability index: 0.7 ± 0.035 for the first, 0.717 ± 0.017 for the second.

VLLAAFLLPGLR and VLLQDLSYLIGQ are within error of each other in protein stability index: 0.634 ± 0.033 for the first, 0.707 ± 0.065 for the second.

Going from VLLSSPSLLFFE to VLLSTLHLRGFG, the protein stability index falls from 0.703 ± 0.039 to 0.537 ± 0.04.

Compared with VLMDVVGLGSSS, VLNRFENRNSKA is higher in protein stability index: 0.683 ± 0.019 for the first, 0.7098 ± 0.0035 for the second.

VLPLRPGRKLSG and VLPVLTWWGELG are within error of each other in protein stability index: 0.664 ± 0.054 for the first, 0.733 ± 0.018 for the second.

Going from VLRCVLTYGKPS to VLRGYRRVGVPP, the protein stability index falls from 0.673 ± 0.031 to 0.616 ± 0.016.

Compared with VLRSSFYLSFPR, VLRSTQGAINRI is higher in protein stability index: 0.611 ± 0.013 for the first, 0.717 ± 0.02 for the second.

VLSFFQCSWVLL and VLSFPYLSRKCI are within error of each other in protein stability index: 0.574 ± 0.057 for the first, 0.546 ± 0.037 for the second.

VLSGAPGLIVYA and VLSLPPLFRTSA are within error of each other in protein stability index: 0.602 ± 0.043 for the first, 0.636 ± 0.0086 for the second.

VLTSRCGLLFVL and VLTSSVLPSFFP are within error of each other in protein stability index: 0.62 ± 0.044 for the first, 0.627 ± 0.018 for the second.

VLVPVDRCGYIG and VLWIVDLFACEG are within error of each other in protein stability index: 0.619 ± 0.11 for the first, 0.585 ± 0.0037 for the second.

VLYPVISVLTTL and VMKAVNKTKRNV are within error of each other in protein stability index: 0.629 ± 0.011 for the first, 0.664 ± 0.041 for the second.

First: VMVTMGNMDSEA
Second: VMVYLRSPLLDR
The protein stability index of the first is lower: 0.635 ± 0.031 for the first, 0.748 ± 0.059 for the second.

Compared with VNAGAPGVLAWV, VNAVLFWPRQLS is lower in protein stability index: 0.739 ± 0.021 for the first, 0.619 ± 0.013 for the second.

VNFGWWVVGSRS and VNHVVRFFFSSH are within error of each other in protein stability index: 0.685 ± 0.062 for the first, 0.676 ± 0.019 for the second.

VPAALAGADCSP and VPAGDPPGAWKA are within error of each other in protein stability index: 0.763 ± 0.085 for the first, 0.746 ± 0.025 for the second.

VPALLPLLPSPP and VPFPHTHPLLTP are within error of each other in protein stability index: 0.712 ± 0.03 for the first, 0.757 ± 0.054 for the second.

Going from VPITLRFSFLTP to VPPCESLSALSS, the protein stability index rises from 0.598 ± 0.073 to 0.707 ± 0.034.

First: VPPPLPSPPSHP
Second: VPPPLTSPSWHF
The protein stability index of the first is higher: 0.761 ± 0.038 for the first, 0.6825 ± 0.0036 for the second.

VPRLARTRPKHA and VPRPLPPSPLLV are within error of each other in protein stability index: 0.641 ± 0.042 for the first, 0.644 ± 0.13 for the second.

VPRPPGPPPGPV and VPRTGSLHARLP are within error of each other in protein stability index: 0.667 ± 0.053 for the first, 0.715 ± 0.03 for the second.

First: VPVISYVQTSIA
Second: VPVMVVCVPSKE
The protein stability index of the first is lower: 0.558 ± 0.033 for the first, 0.715 ± 0.035 for the second.

First: VQDALPLLVPPF
Second: VQGEGVVAISMT
The protein stability index of the first is higher: 0.762 ± 0.021 for the first, 0.712 ± 0.021 for the second.

Compared with VQGGSSCLWSVR, VQGIKFRNSVEV is lower in protein stability index: 0.72 ± 0.01 for the first, 0.665 ± 0.044 for the second.

VQLCQGWIGSES and VQRKVCTFRRSD are within error of each other in protein stability index: 0.676 ± 0.0089 for the first, 0.665 ± 0.14 for the second.

Going from VQSSLFGLGVQC to VQTLYSQLPALR, the protein stability index rises from 0.566 ± 0.033 to 0.78 ± 0.069.

VQWSRFRVGMAE and VRAGLAGGPGRV are within error of each other in protein stability index: 0.848 ± 0.19 for the first, 0.684 ± 0.024 for the second.

Compared with VRAWIGDVENGV, VRCGCDFRVSRC is higher in protein stability index: 0.574 ± 0.058 for the first, 0.717 ± 0.062 for the second.

VRCLGAVEDCLS and VRDGGLCYLAQL are within error of each other in protein stability index: 0.657 ± 0.013 for the first, 0.667 ± 0.019 for the second.

VREQRLPLARRV and VRFGWCLGSGDG are within error of each other in protein stability index: 0.706 ± 0.07 for the first, 0.702 ± 0.068 for the second.

Going from VRFLWWGLFWGW to VRFPVEPYEAMF, the protein stability index rises from 0.499 ± 0.016 to 0.71 ± 0.0097.

First: VRFSVKPAFVRV
Second: VRGDRRHRGVWG
The protein stability index of the first is lower: 0.577 ± 0.032 for the first, 0.709 ± 0.066 for the second.

VRGGGSREERGC and VRGRREGVADER are within error of each other in protein stability index: 0.639 ± 0.061 for the first, 0.712 ± 0.084 for the second.

VRGSLFGICSAL and VRPPRLSSCLLS are within error of each other in protein stability index: 0.705 ± 0.06 for the first, 0.656 ± 0.024 for the second.

VRPRSSSQRPTP and VRQCSSGFRGAF are within error of each other in protein stability index: 0.689 ± 0.011 for the first, 0.674 ± 0.07 for the second.

VRRPSPSGGWLR and VRRWCQFLGCCG are within error of each other in protein stability index: 0.73 ± 0.051 for the first, 0.682 ± 0.0081 for the second.
